Results taken from PMC3623634 (Molecular Biology of the Cell, 2013).

How the values were obtained:
[1] = target: T1, GST-Alp7 (full-length Alp7/TACC fused to GST) (fission yeast, UniProt Q9URY2 1-474); assay: peptide or protein array
T1 sequence (looked up): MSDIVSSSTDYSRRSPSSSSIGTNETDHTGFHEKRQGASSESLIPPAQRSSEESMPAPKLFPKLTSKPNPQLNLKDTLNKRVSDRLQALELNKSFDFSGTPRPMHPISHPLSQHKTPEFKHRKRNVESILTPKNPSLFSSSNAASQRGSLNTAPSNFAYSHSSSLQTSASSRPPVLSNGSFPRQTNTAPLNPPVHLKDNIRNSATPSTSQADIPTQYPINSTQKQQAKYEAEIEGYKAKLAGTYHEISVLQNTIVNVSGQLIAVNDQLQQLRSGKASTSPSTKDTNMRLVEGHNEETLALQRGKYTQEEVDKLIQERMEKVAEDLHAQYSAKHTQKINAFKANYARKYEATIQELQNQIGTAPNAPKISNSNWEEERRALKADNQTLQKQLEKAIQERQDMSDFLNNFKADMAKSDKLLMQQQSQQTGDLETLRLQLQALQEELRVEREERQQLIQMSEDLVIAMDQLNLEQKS

[2] = target: T2, GST-Alp7C (C-terminal half of Alp7, TACC domain, residues 219-474) (fission yeast, UniProt Q9URY2 219-474); assay: peptide or protein array
T2 sequence (looked up): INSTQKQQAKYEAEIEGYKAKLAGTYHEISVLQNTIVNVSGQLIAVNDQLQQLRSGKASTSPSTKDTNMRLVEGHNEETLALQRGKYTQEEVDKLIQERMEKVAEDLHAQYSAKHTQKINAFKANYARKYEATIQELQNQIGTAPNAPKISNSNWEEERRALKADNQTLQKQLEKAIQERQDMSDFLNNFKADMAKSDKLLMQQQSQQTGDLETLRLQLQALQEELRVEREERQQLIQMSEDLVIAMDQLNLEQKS

Binder	binding result [1]	binding result [2]
DSLEKKVQKINSLA (peptide, UniProt Q10198 411-424, looked up) [Ndc80 loop peptide (411-424) with F420 replaced by isoleucine]	binds	binds
DSLEKKVQKLNSLA (peptide, UniProt Q10198 411-424, looked up) [Ndc80 loop peptide (411-424) with F420 replaced by leucine]	binds	binds
